# Measured values reported in the PETadex activity labels.
# Substrate: BHET
# Conditions: 120 h
row,Protein,plate clearing
1,unnamed (protein) MERHNSRRRWGMGLGLLLLAASAHAQYQKGPDPTSASLNASSGPFSVATSSVSSLAAVGFGSGTIYYPTTAGSYAVLAICPGFTATESSIAWLGRRIATHGFVVITINTDSTLDQPPSRATQLMAALRHVTESSSATVRSRVDASRRGVAGHSMGGGGTLYAARDNPSLKAAVPLTAWSTTKTFSSMQVPTLVVGAENDSIASVNSHSIPFYNGLPGSLDKAYAELNGASHFAPNTTNTPIGRYSVAWVKRFMDEDTRYSPFLCGAPHQSYA,not clears the plate
2,unnamed (protein) MISNRRAPARRAGAALTALALAVVLAACDIRGPAPTEQILEAPSGPFAVGSVAVPSSAGFGGGTIYYPSEAAGPFGIIAVTPGFLGNQTSIGTWGPRLASHGFVTITINTTGGFILPDQRSAEQRQALTYVVNQGNRSSSPIFGKVDGDRKGVAGHSMGGGGTLVSAREDPTIRAAVPFAPWYTSTNFSNVTVPTLIVACQSDGVAPVASHASPFYNSIPATTDKSYISVAGADHFCANSPTGGANDVGKYVVAFFKRFVDGDTRYDPWVCG,not clears the plate
3,unnamed (protein) MKTTTIIKSTLCAFTLTFSLSAFSGGGGGGGGGNNGNLPPPDTCNTNCGYEIGPNPTLGFLQASQGPLPVSSTNVSSSVNGFGGGTIYYPSNISDEMAAISIAPGFTNTQSAVAWWGPILASHGFVVITINTNSRFDQPESRSRQLDSALSYLISEGDRGSSPISGLVDENRLATMGFSMGGGGSLRSASRNRLSAAVPLAPWSTGSNNFDDIGVPTLIMACENDTTARVNTHASPFYNAIPGSTDKAFMEINNGPHNCANGESSTNRSLLSTYGVSWMKRFLDKDRRYNQFLCGPNHEANSRISEYRDTCSYG,not clears the plate
4,unnamed (protein) MERGNHRAKWAIGFGLLLLGAAAHSQTNPYQKGPDPTSATLNATSGSFAVATSTVSSLAANGFGGGTIYYPTQTGTYAVLAISPGFTATQSSIAWLGRRISTHGFVVITIDTNSTLDQPPSRATQLMAALRHVTDLSSSTVRSRVDASRRGVAGHSMGGGGTLIAARDNPSLKAAVPLTAWSTTKIFSTVQVPTLVVGAESDSVAPVSSHSIPFYNSLSNSLDKAYAELNNASHFAPNSTNTPIGRYSVAWVKRFMDNDTRYTPFLCGTPHTSYATSTVFSDYRSTCPY,not clears the plate
5,unnamed (protein) MTTKRHRTATTPTRRARLALLAAATLLSFAAQAQVVIFQENFNSGLGQFTASGTVSTSSGGAVMQGCYNCTDGAITSKPISTVGFTNLKLSYDRTTTGLDSGEYGVAAYSVNGGAWTVIESIQSSSGRVTIALPAAAANQASLRLRFRVNASLSAETFTVDNVVLEGTPGGAPGPGGNPYQKGPDPTAAALEASAGPFTVATTTVSASSASGYGGGTIYYPTNVAGPFAAIAVVPGYTATQSSISWWGPRLASHGFVVITIDTNSTSDLPASRATQLMAALNQLKTFSATSGHAIYGKVDPNRLGVMGWSYGGGGTLIAARDNPTLKAAIPLAPKTSSGTDFSGITVPTLIVGCESDTTAPVSSWAIPFYNSIPASTKKAYLEINNGDHFCVTTSNSSADKAILGKYGVAWMKRFLDNDTRYSPFLCGAPHQADLSGNAAISEYRDNCPY,not clears the plate
6,unnamed (protein) MQYASTPTLRHVAQFAKASVLAATVLLASVAHAQFEKGPNPTVSALERAGTFATRTTTVSSLSASGFGGGTIYYPTAAGSYGVIAISPGFTARQSSISWMGTRIASHGFVVITIDTNTTSDQPDSRARQLKAALDKVVSLSTGRTNVLYGKVDASRLAVAGHSMGGGGSLAAARDYPTLKAAVPLAPWHTTKSFSSVRVPTLIISGENDSVAGNSSHSIPFYNSLPSSTPKGYLELNAEDHFFPQDSGEYGLVGKYMISWFKRFVDSDTRYSPFLCGAEHQAQVRVTSRVSDSRTNCPY,not clears the plate
7,unnamed (protein) MPGYQGTQQNLQWLAPRLASWGFTVINLGTNTLTDDPDSRATQIRNAGTQLLSFSATAGNPIANKVRSVTASTGLGVSGHSMGGGGTMVVLRDDSRFTAGAPLAPYHPSGAFSGVTKPTFFLVCASDVAAPGNTYAKPWYNSMASAEKLYMSVPGDHLCPMTGYGDKAKQGKYLVSWFSRWLKGDTSYSQFLCTDSIRNVDKNNTSIVTEWMDTCPY,not clears the plate
8,unnamed (protein) MAKFTGAAQFLKASMAIGAIVLSAAASAQTNPYQRGPAPTDSSLAADRGPLAYSSFTVSRPSGYRAGTVYYPTNAGGTVGAIAVVPGFTAYQSDINWWGPRLASWGFVVITIDTNSTLDQPSSRSRQQLAALDQVATLSRTSGSPIYNKVDTSRMGVMGWSMGGGGSLISTQNRPSLKASIPFAPWNGTSSFSSVTTPTFIIACQSDLIAPVASHANDFYNSLSRPPKMFLEIRGGSHYCANSSNGNKDVLGAKGVAWMKRY,not clears the plate
9,unnamed (protein) MIKDFLLSRVVIVAGTLIFSMPTLAEITVSETTVVIPKEALPVPTLSNCITDSAITADALSDTRDNGPFTVSTKRVPRQSANGFGGGTIHYPTNASGCGLLGGIAVVPGYVSYESSIKWWGPRLASWGFVVITINTNHISDNPDSRATQLNAALDHLLLDSTVANMVDRDRLGVIGWSMGGGGALRLATDRSTVRAIIAQTPYHDTSYPTMDTPALFIACENDRIAPNKKYTNVFYNNATGPKMKVEVSNGSHFCASHGFHEILLSKPGIAWMQRYINGDTRFDQFLCSSENYNSSPRISSYNYKNCL,not clears the plate
10,unnamed (protein) MQKIRSIGRAGRARWGRAALTAVALAAALSAAQAQTVVGPDPTAAALEAARGPFAVSTTTIKAPRGFRAGTVFFPASVTTPMAAVAVVPGFTARQSSINWLGPRLASWGFVVVTIDTNSTSDQPAARATQLMAALKQVVDESKVAGSPFFGKVDGARLGVMGHSMGGGGSLIAARNNPTLKAAIPMAPWNLGRNFSGVSVPTLVMACQNDAVAPVAQHASPFFESIPATVDKAFLEVRGGSHLCPTTASVANQPLLGKYSVAWMKRFMDNDTRFSAFLCDAPHQADLAGNKISAYRENCPY,clears the plate (z > 3 vs empty vector)
11,unnamed (protein) MTPTTHDDIDSHPSRTPAMRRAWPAFIAGTLLSLGAQAQVAIFKEDFQGGIGQFTSAGAASVSNGRVVMKGCLTCADGSVTSKEISTVGFDALRLSYDRTIVGLDAGEYGEVAYAVDGGEWTMLWGRLDNRSGRGTIDLPAAAANQKSLRLRYRIHASDSAETFTLDNVLLEGTPRSVTHPNPYAKGPDPTASALEAKAGPFTYAATVVPSGKASGYGGGTLYHPDKEVGPFAAIVIVPGYTATQESVKWWGPLLASHGFVVMVIDTLDNRDLPGSRATQLMAAVSQVKGFNTTQGHAIQGKVDPARVGIMGWSFGGGGTLLAAQAHPELKAAIPMAPKTWGETLKTADIKVPTLIIGCQADTTAPVKDWAIPFHEGIPGSVRKAYLEIAQGGHGCVSAQFNKKAADLAMMGKYGVSWMKRFLDEDTRYSPYLCGAPHQADVNGKTVVSAYRENCPY,not clears the plate
12,unnamed (protein) MPPHAARPGPAQNRRGRAMAVITPRRERSSLLSRALRFTAAAATALVTAVSLAAPAHAANPYERGPNPTDALLEARSGPFSVSEERASRFGADGFGGGTIYYPRENNTYGAVAISPGYTGTQASVAWLGERIASHGFVVITIDTNTTLDQPDSRARQLNAALDYMINDASSAVRSRIDSSRLAVMGHSMGGGGSLRLASQRPDLKAAIPLTPWHLNKNWSSVRVPTLIIGADLDTIAPVLTHARPFYNSLPTSISKAYLELDGATHFAPNIPNKIIGKYSVAWLKRFVDNDTRYTQFLCPGPRDGLFGEVEEYRSTCPF,not clears the plate
13,unnamed (protein) MHTKNYRNDARTVPKRSSLAKSLLAGGILLFSAAANADIIFQEDFNSSLGQFTASGSVTTGTYGARMAAAYGSGDAFITSAPISTVGFTNISLTWTRTTSGLDSGESGIAMFSTNGSTWTTIESVQSASGVRTVALPAGAAGQSALRLRFEVDGSLSSETYTVDTIRLEGTGSGGGCEPNCEPPPTGNPYERGPAPTTSSLEASTGPFQVATTTVSSTTADGYGSGTIYHPTGVTGPFAAIAICPGYTATQTSISQWGPRLASHGFVVITINTNSTSDQPPSRATQLMAALDQLVTFSNTSGHAIFGKVDGTRRGVMGHSMGGGGSLIAARDNPSLKAAIPMAPWYSSSTNFSAIRTPTMIVACESDSIARVSSHALPFYNSIPSTTPKAFAERNNGSHNCPINNNDWWPTLNKYGVAWMKRFLDNDTRYSPWLCGAPHEAVVDGTTYSRYLSNCPY,clears the plate (z > 3 vs empty vector)
14,unnamed (protein) MRHRSISALVLGTAVVAGAAQAQINPFAKGPDPTPASIQATGPFAISMQTVPRAAGFGGATVYSPNDPGSYALVVLCPGFIETQSAISAVGQRLATHGFVVATIDTVTTIDFPASRGTQLIAALQTITALNTGPVAGKIDTTRLVVGGHSMGGGGTLEASRTNPAIKAGLPIAPFHFVKQFNTPVPQLITGGQVDAIAPVGQHAIPFFEMLPDATPKIYAELTGGNHFFVTQNPPNQPINKLLLAWTKRFADNDLRYEQFITATAVQAEVANGALSQTRREATPF,not clears the plate
